Data on 52 molecules can be found in article PMC9352680, “A comprehensive thermodynamic model for RNA binding by the Saccharomyces cerevisiae Pumilio protein PUF4”.

Substitutions are numbered along the chain they refer to. In names and notes the source's numbering stands. Bounds are passed on as bounds.

B1: Ia_S4_P3E.1_K3.1_C3.1_H3.1_[T1G]_A3.1_F3.1_T3.1 (ssRNA)
RNA: UUUGACAACUGAUCGUUCUUUCUGGUAUAUAUUCUUUCUCGAUCAGUUGUCUUU
B2: Ia_S4_P3E.1_K3.1_C3.1_H3.1_[A4T]_A3.1_F3.1_T3.1 (ssRNA)
RNA: B1 RNA with G24U, A27U
B3: Ia_S4_P3E.1_K3.1_C3.1_H3.1_[T1A]_A3.1_F3.1_T3.1 (ssRNA)
RNA: B1 RNA with G24A
B4: Ia_S4_P3E.1_K3.1_C3.1_H3.1_[G2C]_A3.1_F3.1_T3.1 (ssRNA)
RNA: B1 RNA with G24U, G25C
B5: Ic_S4_P3E.1_K3.1_C3.1_H3.1_A3.1_[T5C]_F3.1_T3.1 (ssRNA)
RNA: B1 RNA with G24U, U28C
B6: Ib_S4_P4E.1_K4.1_C4.1_H4.1_[G2C]_A4.1_F4.1_[A9C]_T4.1 (ssRNA)
RNA: UUUGACAACUGAUCGUUCUUUCUUCUAUAUUCUUCUUUCUCGAUCAGUUGUCUUU
B7: Ib_S4_P4E.1_K4.1_C4.1_H4.1_A4.1_[A6C]_F4.1_[T8C]_T4.1 (ssRNA)
RNA: B6 RNA with C25G, A29C, U31C, C32A
B8: Ib_S4_P4E.1_K4.1_C4.1_H4.1_[T3C]_A4.1_F4.1_[A9T]_T4.1 (ssRNA)
RNA: B6 RNA with C25G, U26C, C32U
B9: Ib_S4_P4E.1_K4.1_C4.1_H4.1_A4.1_[T7C]_F4.1_[A9C]_T4.1 (ssRNA)
RNA: B6 RNA with C25G, U30C
B10: Ib_S4_P4E.1_K4.1_C4.1_H4.1_A4.1_[A6T]_F4.1_[T8C]_T4.1 (ssRNA)
RNA: B6 RNA with C25G, A29U, U31C, C32A
B11: Ib_S4_P4E.1_K4.1_C4.1_H4.1_[T1G]_[A4T]_A4.1_F4.1_T4.1 (ssRNA)
RNA: B6 RNA with U24G, C25G, A27U, C32A
B12: Ib_S4_P4E.1_K4.1_C4.1_H4.1_A4.1_[T5A]_F4.1_[T8A]_T4.1 (ssRNA)
RNA: B6 RNA with C25G, U28A, U31A, C32A
B13: Ic_S4_P4E.1_K4.1_C4.1_H4.1_A4.1_[T5C]_F4.1_[A9T]_T4.1 (ssRNA)
RNA: B6 RNA with C25G, U28C, C32U
B14: Ib_S4_P4E.1_K4.1_C4.1_H4.1_A4.1_[T5C]_F4.1_[T8C]_T4.1 (ssRNA)
RNA: B6 RNA with C25G, U28C, U31C, C32A
B15: Ib_S4_P4E.1_K4.1_C4.1_H4.1_A4.1_[A6T]_F4.1_[A9G]_T4.1 (ssRNA)
RNA: B6 RNA with C25G, A29U, C32G
B16: Ib_S4_P4E.1_K4.1_C4.1_H4.1_A4.1_[A6T]_F4.1_[A9C]_T4.1 (ssRNA)
RNA: B6 RNA with C25G, A29U
B17: Ib_S4_P4E.1_K4.1_C4.1_H4.1_[A4T]_A4.1_F4.1_[A9C]_T4.1 (ssRNA)
RNA: B6 RNA with C25G, A27U
B18: Ib_S4_P4E.1_K4.1_C4.1_H4.1_[T1A]_[A4T]_A4.1_F4.1_T4.1 (ssRNA)
RNA: B6 RNA with U24A, C25G, A27U, C32A
B19: Ib_S4_P4E.1_K4.1_C4.1_H4.1_A4.1_[T5A]_F4.1_[A9G]_T4.1 (ssRNA)
RNA: B6 RNA with C25G, U28A, C32G
B20: Ib_S4_P4E.1_K4.1_C4.1_H4.1_[A4C]_A4.1_F4.1_[A9G]_T4.1 (ssRNA)
RNA: B6 RNA with C25G, A27C, C32G
B21: Ib_S4_P4E.1_K4.1_C4.1_H4.1_[T3C]_A4.1_F4.1_[A9G]_T4.1 (ssRNA)
RNA: B6 RNA with C25G, U26C, C32G
B22: Ib_S4_P4E.1_K4.1_C4.1_H4.1_[T1A]_[G2T]_A4.1_F4.1_T4.1 (ssRNA)
RNA: B6 RNA with U24A, C25U, C32A
B23: Ib_S4_P4E.1_K4.1_C4.1_H4.1_[T1A]_[G2C]_A4.1_F4.1_T4.1 (ssRNA)
RNA: B6 RNA with U24A, C32A
B24: Ib_S4_P4E.1_K4.1_C4.1_H4.1_[T1G]_[A4G]_A4.1_F4.1_T4.1 (ssRNA)
RNA: B6 RNA with U24G, C25G, A27G, C32A
B25: Ib_S4_P4E.1_K4.1_C4.1_H4.1_A4.1_[T7A]_F4.1_[T8C]_T4.1 (ssRNA)
RNA: B6 RNA with C25G, U30A, U31C, C32A
B26: Ib_S4_P4E.1_K4.1_C4.1_H4.1_[T1C]_[G2T]_A4.1_F4.1_T4.1 (ssRNA)
RNA: B6 RNA with U24C, C25U, C32A
B27: Ib_S4_P4E.1_K4.1_C4.1_H4.1_[G2T]_[A4C]_A4.1_F4.1_T4.1 (ssRNA)
RNA: B6 RNA with C25U, A27C, C32A
B28: Ib_S4_P4E.1_K4.1_C4.1_H4.1_[G2A]_[A4G]_A4.1_F4.1_T4.1 (ssRNA)
RNA: B6 RNA with C25A, A27G, C32A
B29: Ib_S4_P4E.1_K4.1_C4.1_H4.1_[T1G]_[G2T]_A4.1_F4.1_T4.1 (ssRNA)
RNA: B6 RNA with U24G, C25U, C32A
B30: Ib_S4_P4E.1_K4.1_C4.1_H4.1_[T1C]_[A4T]_A4.1_F4.1_T4.1 (ssRNA)
RNA: B6 RNA with U24C, C25G, A27U, C32A
B31: Ib_S4_P4E.1_K4.1_C4.1_H4.1_[G2A]_[A4T]_A4.1_F4.1_T4.1 (ssRNA)
RNA: B6 RNA with C25A, A27U, C32A
B32: Ic_S4_P4E.1_K4.1_C4.1_H4.1_A4.1_[T7C]_F4.1_[A9T]_T4.1 (ssRNA)
RNA: B6 RNA with C25G, U30C, C32U
B33: Ib_S4_P4E.1_K4.1_C4.1_H4.1_A4.1_[T7G]_F4.1_[T8C]_T4.1 (ssRNA)
RNA: B6 RNA with C25G, U30G, U31C, C32A
B34: Ib_S4_P4E.1_K4.1_C4.1_H4.1_[T1C]_[G2A]_A4.1_F4.1_T4.1 (ssRNA)
RNA: B6 RNA with U24C, C25A, C32A
B35: Ib_S4_P4E.1_K4.1_C4.1_H4.1_[T3C]_A4.1_F4.1_[A9C]_T4.1 (ssRNA)
RNA: B6 RNA with C25G, U26C
B36: Ib_S4_P4E.1_K4.1_C4.1_H4.1_A4.1_[A6G]_F4.1_[T8C]_T4.1 (ssRNA)
RNA: B6 RNA with C25G, A29G, U31C, C32A
B37: Ib_S4_P4E.1_K4.1_C4.1_H4.1_[G2C]_[T3C]_A4.1_F4.1_T4.1 (ssRNA)
RNA: B6 RNA with U26C, C32A
B38: Ib_S4_P4E.1_K4.1_C4.1_H4.1_A4.1_[T5A]_F4.1_[T8C]_T4.1 (ssRNA)
RNA: B6 RNA with C25G, U28A, U31C, C32A
B39: Ic_S4_P4E.1_K4.1_C4.1_H4.1_A4.1_[A6C]_F4.1_[A9G]_T4.1 (ssRNA)
RNA: B6 RNA with C25G, A29C, C32G
B40: Ib_S4_P4E.1_K4.1_C4.1_H4.1_[A4C]_A4.1_F4.1_[A9T]_T4.1 (ssRNA)
RNA: B6 RNA with C25G, A27C, C32U
B41: Ib_S4_P4E.1_K4.1_C4.1_H4.1_A4.1_[T7C]_F4.1_[T8A]_T4.1 (ssRNA)
RNA: B6 RNA with C25G, U30C, U31A, C32A
B42: Ib_S4_P4E.1_K4.1_C4.1_H4.1_[T1A]_[T3C]_A4.1_F4.1_T4.1 (ssRNA)
RNA: B6 RNA with U24A, C25G, U26C, C32A
B43: Ib_S4_P4E.1_K4.1_C4.1_H4.1_[T1C]_[G2C]_A4.1_F4.1_T4.1 (ssRNA)
RNA: B6 RNA with U24C, C32A
B44: Ib_S4_P4E.1_K4.1_C4.1_H4.1_A4.1_[T7A]_F4.1_[T8A]_T4.1 (ssRNA)
RNA: B6 RNA with C25G, U30A, U31A, C32A
B45: Ib_S4_P4E.1_K4.1_C4.1_H4.1_[G2T]_[T3C]_A4.1_F4.1_T4.1 (ssRNA)
RNA: B6 RNA with C25U, U26C, C32A
B46: Ib_S4_P4E.1_K4.1_C4.1_H4.1_A4.1_[A6C]_F4.1_[A9T]_T4.1 (ssRNA)
RNA: B6 RNA with C25G, A29C, C32U
B47: Ib_S4_P4E.1_K4.1_C4.1_H4.1_[G2T]_[A4G]_A4.1_F4.1_T4.1 (ssRNA)
RNA: B6 RNA with C25U, A27G, C32A
B48: Ib_S4_P4E.1_K4.1_C4.1_H4.1_[T1G]_[A4C]_A4.1_F4.1_T4.1 (ssRNA)
RNA: B6 RNA with U24G, C25G, A27C, C32A
B49: Ic_S4_P4E.1_K4.1_C4.1_H4.1_A4.1_[T7G]_F4.1_[A9G]_T4.1 (ssRNA)
RNA: B6 RNA with C25G, U30G, C32G
B50: Ib_S4_P4E.1_K4.1_C4.1_H4.1_[A4G]_A4.1_F4.1_[A9C]_T4.1 (ssRNA)
RNA: B6 RNA with C25G, A27G
B51: Ib_S4_P4E.1_K4.1_C4.1_H4.1_[A4C]_A4.1_F4.1_[A9C]_T4.1 (ssRNA)
RNA: B6 RNA with C25G, A27C
B52: Ib_S4_P4E.1_K4.1_C4.1_H4.1_A4.1_[A6G]_F4.1_[A9C]_T4.1 (ssRNA)
RNA: B6 RNA with C25G, A29G

For this series, the target named is T1, PUF4 RNA-binding domain (Saccharomyces cerevisiae, UniProt P25339 537-888).
T1 sequence: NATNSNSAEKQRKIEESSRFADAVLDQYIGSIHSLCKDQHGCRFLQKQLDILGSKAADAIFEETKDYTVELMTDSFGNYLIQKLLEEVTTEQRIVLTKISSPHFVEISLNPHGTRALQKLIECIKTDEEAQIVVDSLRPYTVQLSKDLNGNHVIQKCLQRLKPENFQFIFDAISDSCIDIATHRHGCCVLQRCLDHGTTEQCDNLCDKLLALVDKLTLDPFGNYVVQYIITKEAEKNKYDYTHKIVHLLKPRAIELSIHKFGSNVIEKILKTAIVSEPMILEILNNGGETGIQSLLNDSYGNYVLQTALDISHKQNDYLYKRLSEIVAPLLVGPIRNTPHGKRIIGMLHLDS
Kind of series: Mg; RNA-MaP; 20 mM Na-HEPES pH 7.4, 30 mM KOAc, 0.75 mM MgCl2, 0.1% Tween-20, 5% glycerol, 0.1 mg/mL BSA, 2 mM DTT; 25 C; 0.0125-409.6 nM protein. The settings on record: tags: N-His6-TEV cleaved; C-SNAP kept, Cy3B-labelled; label: tethered on chip by stalled RNA polymerase.
In turn, B1 returned a Kd of 1280 nM.
B2 showed a Kd of 86.8 nM.
In the case of B3, the Kd amounted to 819 nM.
On to B4, for which binding was put at a Kd of 360 nM.
For B5, the Kd turned out to be 1.93 nM.
Next, B6: 1530 nM.
B7: binding was put at a Kd of 22.1 nM.
B8 showed a Kd of 1000 nM. This Kd is about 45-fold higher than that of the molecule before.
With B9, the Kd came out at 10.1 nM.
B10 showed an equilibrium dissociation constant (Kd) of 84.2 nM.
With B11 the figure was 1600 nM.
In turn, B12 showed a Kd of 27.4 nM.
In the case of B13, the Kd is 1.94 nM.
Molecule B14 showed a Kd of 8.87 nM.
Molecule B15 gave a Kd of 8.2 nM.
With B16 the figure was 17.8 nM; with B17, 406 nM.
Consider B18, for which the Kd was over 2300 nM.
For the molecule B19, binding was characterised by a dissociation constant (Kd) of 19.7 nM.
B20 came in with a Kd of 252 nM. Compared with the last molecule, the Kd is about 13-fold higher.
B21 came in with a Kd of over 2300 nM.
Turning to B22, the Kd was 686 nM.
With B23, the affinity, expressed as Kd, was 481 nM.
Consider B24, for which the Kd was determined as 40.1 nM.
As for B25, binding was put at a Kd of 19.6 nM.
In turn, B26 yielded an equilibrium dissociation constant (Kd) of 401 nM.
The molecule B27 showed a Kd of over 2300 nM.
Next, B28: 15.2 nM; B29: 41.2 nM; B30: 615 nM.
B31 gave a Kd of 669 nM.
In the case of B32, the Kd worked out at 7 nM.
The molecule B33 had a Kd of 51.1 nM.
As for B34, the affinity, expressed as Kd, was 168 nM.
Regarding B35, the Kd is over 2300 nM.
B36 displayed a Kd of 136 nM. In other words, the sub-micromolar range.
The molecule B37 registered a Kd of 2090 nM. Against the preceding molecule, the Kd is about 15-fold higher.
Molecule B38 displayed a Kd of 78.4 nM.
For the molecule B39, the Kd was 11.3 nM.
B40 registered a Kd of 268 nM.
As to B41, the Kd worked out at 18.4 nM. Compared with the last molecule, the Kd is about 15-fold lower.
Take B42: the Kd was determined as 1880 nM.
With B43 the figure was 331 nM.
For the molecule B44, the affinity, expressed as Kd, was 29.8 nM.
Next, B45: 2000 nM; B46: 10.8 nM.
B47 returned a Kd of 7.27 nM.
As for B48, the Kd was over 2300 nM.
Next, B49: 13.5 nM.
With B50 the figure was 12.1 nM.
Molecule B51 gave a Kd of 501 nM.
Regarding B52, binding was put at a Kd of 15.5 nM.

For orientation: Kd means the free concentration of one partner at which half of the binding sites on the other are occupied at equilibrium, for simple one-to-one binding. A high value points to a looser complex.
